This assay deals with Kaposi's sarcoma-associated herpesvirus (KSHV) ORF68 protein (Kaposi's sarcoma-associated herpesvirus (KSHV)). Put plainly: SEC. (Size exclusion chromatography separates by hydrodynamic size, large species first.)

The text below walks through data of paper doi:10.1101/322719.

Usually stoichiometry N stands for a count of units in the complex or per binding partner.

The substance “Kaposi's sarcoma-associated herpesvirus (KSHV) ORF68 protein (natural protein)” registered a stoichiometry N of 5.
